The values that follow come from article PMC4884500 (DNA repair, 2016).

Assay [1] addresses Full-length MmRAD51D (yeast two-hybrid fusion) (mouse) (UniProt O55230). Description: two-hybrid.
In assay [2] the target is T1, Full-length MmRAD51D (yeast two-hybrid fusion) (mouse, UniProt O55230 1-329).
T1 sequence (looked up): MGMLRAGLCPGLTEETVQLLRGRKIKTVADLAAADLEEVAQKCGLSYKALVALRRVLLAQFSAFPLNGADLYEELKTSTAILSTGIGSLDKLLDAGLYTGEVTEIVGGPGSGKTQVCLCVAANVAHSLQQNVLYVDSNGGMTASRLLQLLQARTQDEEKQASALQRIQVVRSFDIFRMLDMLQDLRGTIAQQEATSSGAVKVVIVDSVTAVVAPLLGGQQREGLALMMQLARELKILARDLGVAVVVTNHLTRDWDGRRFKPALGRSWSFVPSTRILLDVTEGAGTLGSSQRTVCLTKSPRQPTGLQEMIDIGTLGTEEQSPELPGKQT
Description: two-hybrid.

“MmRnf138-Δ5 (RNF138 splice variant with a deletion of exon 5, yeast two-hybrid fusion) (natural protein)” gave a fold decrease in the level of interaction against full-length RNF138 in assay [1] of 8 fold. On the same count and under the same terms, under “MmRnf138-Δ7 (RNF138 splice variant with a deletion of exon 7, yeast two-hybrid fusion) (natural protein)” stands 3 fold.

B1: RNF138 (yeast two-hybrid fusion) (natural protein, mouse, UniProt Q9CQE0-1 1-245, looked up)
chain: MSEELSAATSYTEDDFYCPVCQEVLKTPVRTAACQHVFCRKCFLTAMRESGIHCPLCRGSVTRRERACPERALDLENIMRRFSGSCRCCSKKIKFYRMRHHYKSCKKYQDEYGVSSVIPNFKISQDSVRSSNRSETSASDNTETYQEDTSSSGHPTFKCPLCQESNFTRQRLLDHCNSNHLFQIVPVTCPICVSLPWGDPSQITRNFVSHLNQRHQFDYGEFVNLQLDEETQYQTAVEESFQVNM
Consider B1, for which the “β-galactosidase level relative to the DBD-RAD51D:AD-RAD51C positive control” value in assay [2] was determined as 79%.
